Test results from patent US11427637B2, “Methods of treating PD-L1 expressing cancer” (Mayo Foundation for Medical Education and Research, priority 2016, dated 2022).

How the values were obtained:
ABX = target: T1, ABX (Homo sapiens, UniProt P02768); assay: Biolayer interferometry (BLItz) binding of atezolizumab to ABX; conditions: biotinylated atezolizumab on streptavidin probe; ABX 100, 500, 1000 μg/mL in 1×PBS; read-out: Kd (binding affinity between atezolizumab and ABX)
T1 construct: purchased Celgene Corp
Protocol: To determine whether atezolizumab and ABX are capable of interacting to form nanoparticle complexes, Biolayer interferometry (BLItz) (Forte Bioscience) was performed using streptavidin probes. 100 ug/ml of biotinylated atezolizumab in 1×PBS was bound to the streptavidin probe. After washing unbound atezolizumab from the probe, the antibody-bound probe was exposed to ABX at concentrations of 100, 500, 1000 μg/mL in 1×PBS. An antibody probe exposed to PBS was used as background and background was subtracted. BLItz software was used to calculate dissociation constants (FIG. 1).

[1] = tested on: PD-L1 positive C8161 melanoma tumor cells; assay: In vivo efficacy, C8161 melanoma tumors in athymic nude mice; conditions: one IV tail vein injection; atezolizumab 18 mg/kg, ABX 45 mg/kg, AA130 = 18 mg/kg atezolizumab and 45 mg/kg ABX
Protocol: Athymic nude mice (Harlan Sprague Dawley) were injected with 2×10^6 PD-L1 positive C8161 melanoma tumor cells. The tumors were allowed to grow until about 600 mm^3 and were treated by 100 μl IV tail vein injection with saline, atezolizumab alone (18 mg/kg), ABX alone (45 mg/kg) and AA130 (18 mg/kg atezolizumab and 45 mg/kg ABX) one time (FIGS. 5A-5D). Tumor growth was monitored 3 times/week. Tumor size was calculated with the equation: (length×width^2)/2.
Kaplan Meier curves were generated using Graph Pad software. The median survival for each group was 14, 13, 16, and 21.5 days for saline, atezolizumab, ABX and AA130, respectively. Survival differences between AA130 and all other groups were significant with p-values of 0.0008 for saline, 0.0015 for atezolizumab, and 0.0113 for Abraxane.

“atezolizumab: fully humanized, Fc-modified monoclonal antibody of IgG1 isotype against PD-L1” showed a Kd (ABX) of 1.46 nM and a median survival [1] of 13 days.
